Assay results as given in PMC5173319 (2016).

Columns and labels:
[1] = target: T1, Pyrobaculum calidifontis crenactin (Pyrobaculum calidifontis, UniProt A3MWN5 1-432); assay: SPR
[2] = target: T1, Pyrobaculum calidifontis crenactin; assay: SPR; remark: listed apart in the source
[3] = target: T1, Pyrobaculum calidifontis crenactin; assay: SPR; slow phase
[4] = target: T1, Pyrobaculum calidifontis crenactin; assay: SPR; fast phase
[5] = target: T1, Pyrobaculum calidifontis crenactin; assay: SPR; fast phase; remark: listed apart in the source
[6] = target: T1, Pyrobaculum calidifontis crenactin; assay: SPR; slow phase; remark: listed apart in the source

T1 sequence (A3MWN5 whole entry): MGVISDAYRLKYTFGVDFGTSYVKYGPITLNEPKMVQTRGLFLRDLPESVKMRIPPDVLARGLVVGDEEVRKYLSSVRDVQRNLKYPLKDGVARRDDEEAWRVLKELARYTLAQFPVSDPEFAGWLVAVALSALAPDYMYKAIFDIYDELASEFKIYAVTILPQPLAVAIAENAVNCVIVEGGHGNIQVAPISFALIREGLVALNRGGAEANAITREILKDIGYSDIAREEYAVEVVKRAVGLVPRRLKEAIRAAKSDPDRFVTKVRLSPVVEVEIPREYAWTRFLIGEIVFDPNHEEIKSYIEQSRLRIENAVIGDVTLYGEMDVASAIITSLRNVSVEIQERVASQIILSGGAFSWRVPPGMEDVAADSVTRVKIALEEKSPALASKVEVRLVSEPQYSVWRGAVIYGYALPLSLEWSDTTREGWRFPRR

Binder | koff [1] [s⁻¹] | Kd [2] [nM] | Kd [3] [nM] | Kd [4] [nM] | koff [5] [s⁻¹] | koff [6] [s⁻¹]
RGGIGENEWVKILRSKR [arcadin-2 C-terminal peptide (residues 187-203)] | 0.019 | 9 | – | – | – | –
Pyrobaculum calidifontis arcadin-2 (natural protein) MDFPKVLLIRHFTEVLGMKYAGEGGEVLWFEEGLNRVAVGIYFTDLYEEAELYKRVGALMGLGASKVFLAVLPDALAFVDPRYFKANGVGLVVVDPAKGVDGVEVKIFARARPAAVEPLKIDAVKAALHEYLASELKRVEESLFEKVRRYVDQRVEEVKRALQAVEEAKRAAPPVQRAAAESAQEPRGGIGENEWVKILRSKR | – | – | 59 | 24 | 0.019 | 0.0034
